# Data published in the supplement of paper PMC10724198.
# ± gives the standard deviation of the averaged measurements.
# Tests used:
# [1] = tested on: Saccharomyces cerevisiae; experiment: protein stability index of tFT-peptide fusion (C-terminal peptide) (PSI (0-1 scale)); higher = more stable (slower turnover)
# Protocol: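 MPS profiling in S. cerevisiae of the tFT-X12 degron library: putative degron peptides plus stable controls, 12 aa, fused to the C-terminus of a sfGFP-mCherry timer. Cells are FACS-sorted into 8 mCherry/sfGFP bins and deep-sequenced. PSI runs from 0 (unstable) to 1 (stable). Backgrounds are wild type, das1Δ and doa10Δ at 30 °C, and wild type, das1Δ, cdc34-1 and cdc53-1 at 37 °C; 2-3 technical replicates each.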
# [2] = tested on: Saccharomyces cerevisiae; experiment: as above; settings: genetic background: wild type; temperature: 30 C
# [3] = genetic background: cdc34-1, temperature: 37 C
# [4] = genetic background: cdc53-1, temperature: 37 C
# [5] = genetic background: das1 deletion, temperature: 30 C
# [6] = genetic background: das1 deletion, temperature: 37 C
# [7] = genetic background: doa10 deletion, temperature: 30 C
# [8] = genetic background: wild type, temperature: 30 C
# [9] = genetic background: wild type, temperature: 37 C
# 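Further: PSI is a weighted mean of sequencing reads over stability bins, variants kept only with over 10 reads, mCherry proximal and sfGFP distal, peptide attached via GGGS linker.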
Sequence,"protein stability index [1, 3]","protein stability index [1, 4]","protein stability index [1, 5]","protein stability index [1, 6]","protein stability index [1, 7]","protein stability index [1, 8]","protein stability index [1, 9]",protein stability index [2]
FFYRFQDLPRIC,0.681 ± 0.018,0.743 ± 0.037,0.651 ± 0.015,0.7358 ± 0.0068,0.191 ± 0.018,0.231 ± 0.035,0.537 ± 0.033,0.397 ± 0.074
LLLTAIRVLRMH,0.561 ± 0.016,0.7045 ± 0.0038,0.587 ± 0.021,0.7177 ± 0.0014,0.118 ± 0.0018,0.149 ± 0.037,0.217 ± 0.033,0.169 ± 0.056
VVFSLLLWLFIS,0.256 ± 0.022,0.405 ± 0.024,0.316 ± 0.047,0.47 ± 0.0075,0.161 ± 0.003,0.168 ± 0.018,0.194 ± 0.0057,0.216 ± 0.029
VWLAWCIVGGLG,0.472 ± 0.0083,0.5494 ± 0.0026,0.386 ± 0.024,0.5441 ± 0.0026,0.352 ± 0.015,0.369 ± 0.028,0.523 ± 0.0062,0.428 ± 0.03
VAWWVCIRSCCG,0.51 ± 0.023,0.55 ± 0.057,0.427 ± 0.027,0.577 ± 0.012,0.353 ± 0.012,0.395 ± 0.015,0.53 ± 0.0066,0.486 ± 0.028
RNNLHKKIRRGY,0.681 ± 0.046,0.752 ± 0.0082,0.661 ± 0.043,0.745 ± 0.033,0.184 ± 0.028,0.251 ± 0.037,0.458 ± 0.013,0.413 ± 0.042
MALAVRVVKCGA,0.328 ± 0.016,0.376 ± 0.0062,0.275 ± 0.031,0.4361 ± 0.0027,0.221 ± 0.006,0.268 ± 0.034,0.397 ± 0.0054,0.384 ± 0.028
LFSIFMSYRVYI,0.35 ± 0.037,0.435 ± 0.021,0.383 ± 0.07,0.486 ± 0.017,0.302 ± 0.03,0.312 ± 0.0037,0.44 ± 0.031,0.411 ± 0.02
GWGVFFVMRIQV,0.1751 ± 0.00088,0.259 ± 0.055,0.225 ± 0.02,0.367 ± 0.017,0.197 ± 0.016,0.198 ± 0.024,0.301 ± 0.029,0.34 ± 0.024
ALLIYFLCRCIP,0.4326 ± 0.00094,0.476 ± 0.011,0.343 ± 0.033,0.522 ± 0.016,0.301 ± 0.015,0.33 ± 0.035,0.483 ± 0.032,0.44 ± 0.034
VGFYGRWVCVAC,0.366 ± 0.053,0.462 ± 0.024,0.287 ± 0.015,0.435 ± 0.0074,0.236 ± 0.011,0.265 ± 0.019,0.384 ± 0.0068,0.29 ± 0.04
LFSCTQLLPITA,0.0614 ± 0.017,0.077 ± 0.012,0.173 ± 0.02,0.198 ± 0.0068,0.141 ± 0.013,0.176 ± 0.018,0.166 ± 0.0061,0.245 ± 0.032
WCFFFVGCCCFG,0.557 ± 0.044,0.59 ± 0.03,0.462 ± 0.034,0.5249 ± 0.004,0.479 ± 0.0084,0.481 ± 0.031,0.537 ± 0.013,0.479 ± 0.0056
VCLLGWGVRLVS,0.667 ± 0.031,0.7294 ± 0.0045,0.609 ± 0.038,0.72374 ± 7.5e-05,0.321 ± 0.0052,0.371 ± 0.023,0.576 ± 0.01,0.505 ± 0.079
LGRFHLACLLFL,0.588 ± 0.013,0.61417 ± 0.00036,0.486 ± 0.028,0.6113 ± 0.004,0.41 ± 0.0065,0.412 ± 0.035,0.543 ± 0.014,0.43 ± 0.048
GFRVTTCASWIC,0.557 ± 0.016,0.734 ± 0.011,0.612 ± 0.015,0.729 ± 0.015,0.143 ± 0.012,0.15 ± 0.027,0.191 ± 0.012,0.177 ± 0.02
FFSLRRAVTVSA,0.208 ± 0.013,0.217 ± 0.0034,0.212 ± 0.028,0.372 ± 0.0052,0.168 ± 0.0042,0.2 ± 0.029,0.3273 ± 0.002,0.349 ± 0.069
GLFAVWVVGVWC,0.0437 ± 0.0013,0.137 ± 0.052,0.139 ± 0.031,0.219 ± 0.0058,0.0955 ± 0.013,0.111 ± 0.045,0.202 ± 0.011,0.212 ± 0.052
DSGMLDFLLMAW,0.541 ± 0.039,0.545 ± 0.015,0.432 ± 0.035,0.57175 ± 0.00049,0.421 ± 0.011,0.451 ± 0.013,0.53 ± 0.0056,0.598 ± 0.16
FFLVLWSSLLSP,0.457 ± 0.025,0.5545 ± 0.00086,0.378 ± 0.035,0.572 ± 0.006,0.3584 ± 0.0021,0.386 ± 0.033,0.5441 ± 0.0011,0.454 ± 0.036

Sequence,"protein stability index [1, 3]","protein stability index [1, 4]","protein stability index [1, 5]","protein stability index [1, 6]","protein stability index [1, 7]","protein stability index [1, 8]","protein stability index [1, 9]",protein stability index [2]
VFLPVMVFFTFS,0.337 ± 0.013,0.457 ± 0.066,0.277 ± 0.03,0.49592 ± 0.00031,0.255 ± 0.0082,0.282 ± 0.016,0.469 ± 0.016,0.4 ± 0.013
VFRLLLFFVFVF,0.266 ± 0.017,0.183 ± 0.068,0.287 ± 0.046,0.3848 ± 0.0031,0.279 ± 0.0075,0.236 ± 0.034,0.354 ± 0.015,0.37 ± 0.0056
LLPYSLSLALRA,0.395 ± 0.0049,0.391 ± 0.015,0.314 ± 0.048,0.468 ± 0.0073,0.2604 ± 0.0023,0.28 ± 0.027,0.429 ± 0.015,0.412 ± 0.0096
ISLSSLYVVMYV,0.413 ± 0.0072,0.418 ± 0.041,0.227 ± 0.026,0.428 ± 0.011,0.178 ± 0.0094,0.195 ± 0.027,0.3919 ± 0.0016,0.291 ± 0.024
WVGGVLLSVVGG,0.158 ± 0.014,0.413 ± 0.041,0.213 ± 0.028,0.349 ± 0.0084,0.179 ± 0.01,0.192 ± 0.029,0.399 ± 0.059,0.245 ± 0.014
DQPLWIGVLAYC,0.434 ± 0.04,0.4712 ± 0.00085,0.31 ± 0.04,0.502 ± 0.011,0.272 ± 0.0047,0.325 ± 0.013,0.487 ± 0.022,0.455 ± 0.025
FSVSYFRLVRLC,0.39 ± 0.017,0.572 ± 0.0077,0.458 ± 0.032,0.602 ± 0.0083,0.0722 ± 0.003,0.0819 ± 0.038,0.08731 ± 0.00027,0.0191 ± 0.027
FFSPFFFFLFRL,0.306 ± 0.11,0.309 ± 0.0057,0.366 ± 0.035,0.453 ± 0.0074,0.483 ± 0.019,0.351 ± 0.0064,0.3971 ± 0.0026,0.414 ± 0.058
FPYARHLSVLLL,0.598 ± 0.04,0.662 ± 0.02,0.564 ± 0.018,0.681 ± 0.022,0.371 ± 0.0079,0.392 ± 0.025,0.54 ± 0.007,0.472 ± 0.029
FSFLLYASLVTH,0.298 ± 0.016,0.343 ± 0.032,0.307 ± 0.021,0.333 ± 0.021,0.322 ± 0.0038,0.297 ± 0.013,0.3145 ± 0.00081,0.314 ± 0.015
FWLFAFVIRKHI,0.286 ± 0.019,0.404 ± 0.013,0.324 ± 0.033,0.511 ± 0.007,0.10098 ± 0.0001,0.089 ± 0.0045,0.0641 ± 0.012,0.2057 ± 0.00034
LFYVSFLFMLLF,0.359 ± 0.084,0.34751 ± 0.00024,0.363 ± 0.036,0.459 ± 0.025,0.396 ± 0.0059,0.325 ± 0.013,0.447 ± 0.029,0.378 ± 0.01
VGVVVVGDVLVW,0.286 ± 0.071,0.375 ± 0.02,0.279 ± 0.03,0.423 ± 0.0065,0.2321 ± 0.0019,0.26 ± 0.025,0.402 ± 0.0091,0.424 ± 0.046
WVSFYLLFFFSF,0.459 ± 0.007,0.4959 ± 0.0028,0.42 ± 0.044,0.539 ± 0.015,0.395 ± 0.0067,0.395 ± 0.017,0.5 ± 0.015,0.483 ± 0.023
FLLFSFFFFFFF,0.44531 ± 9.3e-05,0.4388 ± 0.0028,0.409 ± 0.041,0.52 ± 0.013,0.489 ± 0.037,0.384 ± 0.021,0.488 ± 0.008,0.482 ± 0.011
FFLFFLSFGCFL,0.489 ± 0.078,0.533 ± 0.031,0.421 ± 0.029,0.5391 ± 0.0019,0.4551 ± 0.0028,0.459 ± 0.032,0.505 ± 0.016,0.529 ± 0.048
FNLTCLLISFFN,0.593 ± 0.02,0.609 ± 0.063,0.453 ± 0.036,0.658 ± 0.0081,0.368 ± 0.005,0.417 ± 0.015,0.553 ± 0.028,0.519 ± 0.045
FPLGMFWVCFFV,0.423 ± 0.026,0.464 ± 0.0058,0.357 ± 0.03,0.512 ± 0.025,0.181 ± 0.015,0.207 ± 0.023,0.357 ± 0.015,0.264 ± 0.015
DYSVIPSLALLP,0.692 ± 0.013,0.73118 ± 3.3e-05,0.657 ± 0.028,0.733 ± 0.015,0.669 ± 0.022,0.673 ± 0.0088,0.714 ± 0.02,0.218 ± 0.021
